Laboratory results as given in article PMC10098051.

Target: PeSy1‐His recombinant protein (Saccharothrix yanglingensis Hhs.015)
Assay: MST; PeSy1‐His labelled with protein labelling kit RED, in PBST (PBS with 0.05% Tween 20); serially diluted RSy1‐GST in 16 standard treated capillaries; Monolith NT.115, excitation power 40%, MST power medium; GST as reference control; three biological repeats

How did the Kd turn out when “RSy1‐GST recombinant protein (natural protein)” was run?
The Kd was 8.77 µM.
